This is an account of results in patent publication US4797472A, “New peptide derivatives” (KabiVitrum AB, priority 1986, dated 1989).

Square brackets hold non-standard residues; d marks the D form. Peptide text beside a SMILES is read from it. * marks the point of attachment. pNA = O=[N+]([O-])c1ccc(N*)cc1; Cbz = O=C(OCc1ccccc1)*; Ms = CS(=O)(=O)*

For orientation: Km means the concentration of substrate that gives half-maximal velocity.

One data set has as its target T1, FXa human (Homo sapiens, UniProt P00742).
T1 construct: from tissue; host or cells: human plasma
The data set can be described thus: Determination of kinetic constants for FXa human (plasma activated with RVV+CaCl2). The conditions noted are these: substrate 0.1-0.7 mmol/l, trisbuffer pH 7.0, I=0.25, polybrene, 37° C. Type of data set: biochemical. How it is done: The kinetic data for the substrates are determined by measuring the initial velocity of hydrolysis (Vi) at different substrate concentrations (Si) and at constant enzyme concentrations (Eo). The binding constant (Km) and the maximum velocity (Vmax) are obtained in known manner from Lineweaver-Burk-plot, then the Kcat is calculated (Hemker H. C. loc. cit.)
The substrates in concentrations between 0.1-0.7 mmol/l (Si) are mixed with FXa human plasma and treated according to the method as described by Aurell; L., et al. (Perspectives in Hemostatis, Ed. Fareed J. et al, New York, Pergamon Press 1981, p. 382-388).
10 μl test plasma, control or standard and 200 μl trisbuffer solution (0.05 mol/l tris, pH 7.0, I=0.25 (NaCl)), polybrene (0.1 g/l) are mixed and incubated at 37° C. for 2-4 minutes. 200 μl substrate (37° C.) in concentrations between 0.1-0.7 mmol/l dissolved in trisbuffer solution prepared according to the above are added. The mixture is well stirred and within 30 seconds 200 μl RVV+CaCl2 (20°-25° C.) are added and the mixture is stirred. The absorbance change is measured at once in a spectrophotometer at 405 nm and 37° C.

The target of a further data set is T2, Thrombin bovine (Bos taurus, UniProt P00735).
T2 construct: Thrombin bovine (KabiVitrum) with a constant concentration E0 =1.3 nmol/l; purchased KabiVitrum
The data set can be described thus: Determination of thrombin sensitivity. In kind it is biochemical. To be noted: Thrombin bovine E0=1.3 nmol/l; substrate 0.1-0.4 mmol/l; trisbuffer pH 8.3, I=0.25, 37° C.

Substrate in data set [1]: CC(C)(C)OC(=O)N[C@H](CCCNC(=N)N)C(=O)NCC(=O)N[C@@H](CCCNC(=N)N)C(=O)Nc1ccc([N+](=O)[O-])cc1
The data set can be described thus: purified protein, by the assay type. The conditions noted are these: other: FXa bovine E0=4 nmol/l (pNA-substrate) or 2 nmol/l (AMC-substrate), substrate 0.01-0.4 mmol/l, trisbuffer 0.05 mol/l, pH 8.3, I=0.25, 37° C.

Substrate in data set [2]: CC(C)C[C@@H](NS(C)(=O)=O)C(=O)NCC(=O)N[C@@H](CCCNC(=N)N)C(=O)Nc1ccc([N+](=O)[O-])cc1
The data set can be described thus: purified protein, by the assay type. The conditions noted are these: other: FXa bovine E0=4 nmol/l (pNA-substrate) or 2 nmol/l (AMC-substrate), substrate 0.01-0.4 mmol/l, trisbuffer 0.05 mol/l, pH 8.3, I=0.25, 37° C.

Substrate in data set [3]: CCOC(=O)N[C@H](CCCNC(=N)N)C(=O)NCC(=O)N[C@@H](CCCNC(=N)N)C(=O)Nc1ccc([N+](=O)[O-])cc1
The data set can be described thus: purified protein, by the assay type. The conditions noted are these: other: FXa bovine E0=4 nmol/l (pNA-substrate) or 2 nmol/l (AMC-substrate), substrate 0.01-0.4 mmol/l, trisbuffer 0.05 mol/l, pH 8.3, I=0.25, 37° C.

Substrate in data set [4]: CCS(=O)(=O)N[C@H](CCCNC(=N)N)C(=O)NCC(=O)N[C@@H](CCCNC(=N)N)C(=O)Nc1ccc([N+](=O)[O-])cc1
The data set can be described thus: purified protein, by the assay type. To be noted: other: FXa bovine E0=4 nmol/l (pNA-substrate) or 2 nmol/l (AMC-substrate), substrate 0.01-0.4 mmol/l, trisbuffer 0.05 mol/l, pH 8.3, I=0.25, 37° C.

Substrate in data set [5]: CN(CC(=O)N[C@@H](CCCNC(=N)N)C(=O)Nc1ccc([N+](=O)[O-])cc1)C(=O)[C@@H](CCCNC(=N)N)NC(=O)OCc1ccccc1
The data set can be described thus: purified protein, by the assay type. To be noted: other: FXa bovine E0=4 nmol/l (pNA-substrate) or 2 nmol/l (AMC-substrate), substrate 0.01-0.4 mmol/l, trisbuffer 0.05 mol/l, pH 8.3, I=0.25, 37° C.

Substrate in data set [6]: COc1ccc(COC(=O)N[C@H](CCCNC(=N)N)C(=O)NCC(=O)N[C@@H](CCCNC(=N)N)C(=O)Nc2ccc([N+](=O)[O-])cc2)cc1
The data set can be described thus: purified protein, by the assay type. The conditions noted are these: other: FXa bovine E0=4 nmol/l (pNA-substrate) or 2 nmol/l (AMC-substrate), substrate 0.01-0.4 mmol/l, trisbuffer 0.05 mol/l, pH 8.3, I=0.25, 37° C.

Substrate in data set [7]: COc1ccc(S(=O)(=O)N[C@H](CCCNC(=N)N)C(=O)NCC(=O)N[C@@H](CCCNC(=N)N)C(=O)Nc2ccc([N+](=O)[O-])cc2)cc1
The data set can be described thus: purified protein, by the assay type. To be noted: other: FXa bovine E0=4 nmol/l (pNA-substrate) or 2 nmol/l (AMC-substrate), substrate 0.01-0.4 mmol/l, trisbuffer 0.05 mol/l, pH 8.3, I=0.25, 37° C.

Substrate in data set [8]: CS(=O)(=O)N[C@H](CCCNC(=N)N)C(=O)NCC(=O)N[C@@H](CCCNC(=N)N)C(=O)Nc1ccc([N+](=O)[O-])cc1
The data set can be described thus: purified protein, by the assay type. To be noted: other: FXa bovine E0=4 nmol/l (pNA-substrate) or 2 nmol/l (AMC-substrate), substrate 0.01-0.4 mmol/l, trisbuffer 0.05 mol/l, pH 8.3, I=0.25, 37° C.

Substrate in data set [9]: Cc1cc(=O)oc2cc(NC(=O)[C@H](CCCNC(=N)N)NC(=O)CNC(=O)[C@@H](CCCNC(=N)N)NC(=O)OCc3ccccc3)ccc12
The data set can be described thus: purified protein, by the assay type. The conditions noted are these: other: FXa bovine E0=4 nmol/l (pNA-substrate) or 2 nmol/l (AMC-substrate), substrate 0.01-0.4 mmol/l, trisbuffer 0.05 mol/l, pH 8.3, I=0.25, 37° C.

Substrate in data set [10]: Cc1ccc(S(=O)(=O)N[C@H](CCCNC(=N)N)C(=O)NCC(=O)N[C@@H](CCCNC(=N)N)C(=O)Nc2ccc([N+](=O)[O-])cc2)cc1
The data set can be described thus: purified protein, by the assay type. The conditions noted are these: other: FXa bovine E0=4 nmol/l (pNA-substrate) or 2 nmol/l (AMC-substrate), substrate 0.01-0.4 mmol/l, trisbuffer 0.05 mol/l, pH 8.3, I=0.25, 37° C.

Substrate in data set [11]: N=C(N)NCCC[C@H](NC(=O)CNC(=O)[C@@H](CCCNC(=N)N)NC(=O)OCc1ccc([N+](=O)[O-])cc1)C(=O)Nc1ccc([N+](=O)[O-])cc1
The data set can be described thus: purified protein, by the assay type. To be noted: other: FXa bovine E0=4 nmol/l (pNA-substrate) or 2 nmol/l (AMC-substrate), substrate 0.01-0.4 mmol/l, trisbuffer 0.05 mol/l, pH 8.3, I=0.25, 37° C.

Substrate in data set [12]: N=C(N)NCCC[C@H](NC(=O)CNC(=O)[C@@H](CCCNC(=N)N)NC(=O)OCc1ccccc1)C(=O)Nc1ccc([N+](=O)[O-])cc1
The data set can be described thus: purified protein, by the assay type. The conditions noted are these: other: FXa bovine E0=4 nmol/l (pNA-substrate) or 2 nmol/l (AMC-substrate), substrate 0.01-0.4 mmol/l, trisbuffer 0.05 mol/l, pH 8.3, I=0.25, 37° C.

Substrate in data set [13]: N=C(N)NCCC[C@H](NC(=O)CNC(=O)[C@@H](CCCNC(=N)N)NS(=O)(=O)Cc1ccccc1)C(=O)Nc1ccc([N+](=O)[O-])cc1
The data set can be described thus: purified protein, by the assay type. To be noted: other: FXa bovine E0=4 nmol/l (pNA-substrate) or 2 nmol/l (AMC-substrate), substrate 0.01-0.4 mmol/l, trisbuffer 0.05 mol/l, pH 8.3, I=0.25, 37° C.

Substrate in data set [14]: N=C(N)NCCC[C@H](NC(=O)CNC(=O)[C@@H](CCCNC(=N)N)NS(=O)(=O)c1ccc(Cl)cc1)C(=O)Nc1ccc([N+](=O)[O-])cc1
The data set can be described thus: purified protein, by the assay type. The conditions noted are these: other: FXa bovine E0=4 nmol/l (pNA-substrate) or 2 nmol/l (AMC-substrate), substrate 0.01-0.4 mmol/l, trisbuffer 0.05 mol/l, pH 8.3, I=0.25, 37° C.

Substrate in data set [15]: N=C(N)NCCC[C@H](NC(=O)CNC(=O)[C@@H](CCCNC(=N)N)NS(=O)(=O)c1ccc([N+](=O)[O-])cc1)C(=O)Nc1ccc([N+](=O)[O-])cc1
The data set can be described thus: purified protein, by the assay type. The conditions noted are these: other: FXa bovine E0=4 nmol/l (pNA-substrate) or 2 nmol/l (AMC-substrate), substrate 0.01-0.4 mmol/l, trisbuffer 0.05 mol/l, pH 8.3, I=0.25, 37° C.

Substrate in data set [16]: N=C(N)NCCC[C@H](NC(=O)CNC(=O)[C@@H](CCCNC(=N)N)NS(=O)(=O)c1ccc2ccccc2c1)C(=O)Nc1ccc([N+](=O)[O-])cc1
The data set can be described thus: purified protein, by the assay type. To be noted: other: FXa bovine E0=4 nmol/l (pNA-substrate) or 2 nmol/l (AMC-substrate), substrate 0.01-0.4 mmol/l, trisbuffer 0.05 mol/l, pH 8.3, I=0.25, 37° C.

Substrate in data set [17]: N=C(N)NCCC[C@H](NC(=O)CNC(=O)[C@@H](CCCNC(=N)N)NS(=O)(=O)c1ccccc1)C(=O)Nc1ccc([N+](=O)[O-])cc1
The data set can be described thus: purified protein, by the assay type. To be noted: other: FXa bovine E0=4 nmol/l (pNA-substrate) or 2 nmol/l (AMC-substrate), substrate 0.01-0.4 mmol/l, trisbuffer 0.05 mol/l, pH 8.3, I=0.25, 37° C.

T1 sequence (P00742 235-488 limits assumed): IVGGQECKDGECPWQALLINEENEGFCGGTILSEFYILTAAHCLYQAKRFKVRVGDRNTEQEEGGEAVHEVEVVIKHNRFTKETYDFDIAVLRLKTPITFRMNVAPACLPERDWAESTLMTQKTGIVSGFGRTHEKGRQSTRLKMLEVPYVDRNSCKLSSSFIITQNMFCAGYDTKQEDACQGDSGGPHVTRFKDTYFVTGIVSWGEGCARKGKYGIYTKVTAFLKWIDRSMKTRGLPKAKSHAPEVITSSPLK
T1 sequence (P00742 41-179 partner limits assumed): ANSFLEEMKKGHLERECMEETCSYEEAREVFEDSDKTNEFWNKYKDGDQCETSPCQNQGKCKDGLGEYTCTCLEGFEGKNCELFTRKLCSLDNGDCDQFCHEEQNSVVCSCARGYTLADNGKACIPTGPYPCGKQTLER

For the molecule `N=C(N)NCCC[C@H](NC(=O)CNC(=O)[C@@H](CCCNC(=N)N)NC(=O)OCc1ccccc1)C(=O)Nc1ccc([N+](=O)[O-])cc1` [Example 1, N^α --Z--D--Arg--Gly--Arg--pNA.2HCl] (Cbz-[dR]-Gly-Arg-pNA), the Km is 380 µM at FXa human and 130 µM at Thrombin bovine.
In the same order, the values of `N=C(N)NCCC[C@H](NC(=O)CNC(=O)[C@@H](CCCNC(=N)N)NS(=O)(=O)Cc1ccccc1)C(=O)Nc1ccc([N+](=O)[O-])cc1` [Example 16, N^α --Bzls--D--Arg--Gly--Arg--pNA.2HCl] are 50 µM and 160 µM.
As to `CC(C)C[C@@H](NS(C)(=O)=O)C(=O)NCC(=O)N[C@@H](CCCNC(=N)N)C(=O)Nc1ccc([N+](=O)[O-])cc1` [CBS 31.39, CH3 SO2 --D--Leu--Gly--Arg--pNA.AcOH] (Ms-[dL]-Gly-Arg-pNA), the Km on FXa human amounted to 1060 µM; on Thrombin bovine, 230 µM.

B1: FXa bovine (Bos taurus) (protein)
chain: IVGGRDCAEGECPWQALLVNEENEGFCGGTILNEFYVLTAAHCLHQAKRFTVRVGDRNTEQEEGNEMAHEVEMTVKHSRFVKETYDFDIAVLRLKTPIRFRRNVAPACLPEKDWAEATLMTQKTGIVSGFGRTHEKGRLSSTLKMLEVPYVDRSTCKLSSSFTITPNMFCAGYDTQPEDACQGDSGGPHVTRFKDTYFVTGIVSWGEGCARKGKFGVYTKVSNFLKWIDKIMKARAGAAGSRGHSEAPATWTVPPPLPL
On to B1, for which the Km is 220 µM in data set [1]; 290 µM in [2]; 160 µM in data set [3]; 190 µM in data set [4]; 160 µM in data set [5]; 150 µM in data set [6]. Further, the Michaelis constant (Km) in data set [7] was found to be 200 µM; in data set [8], 170 µM; in [9], 190 µM; in data set [10], 220 µM; in data set [11], 210 µM; in data set [12] it was 110 µM. Also, the Michaelis-Menten constant (Km) in data set [13] is 40 µM; in [14], 270 µM; in [15], 450 µM; in data set [16], 120 µM; in data set [17], 260 µM. The kcat in [1] is reported as 180 sek^-1; in data set [3], 225 sek^-1; in data set [5], 220 sek^-1; in [7] it was 210 sek^-1; in data set [8] it was 200 sek^-1; in data set [9], 170 sek^-1. The kcat in data set [10] was 230 sek^-1; in data set [11], 350 sek^-1; in data set [14], 260 sek^-1; in data set [15], 245 sek^-1; in data set [16], 140 sek^-1; in data set [17], 280 sek^-1. The kcat/Km in data set [1] worked out at 0.82 l/μmol · sek; in [3] it was 1.41 l/μmol · sek; in data set [5], 1.37 l/μmol · sek; in data set [7], 1.05 l/μmol · sek; in data set [8] it was 1.17 l/μmol · sek; in data set [9] it was 0.89 l/μmol · sek. Further, the kcat/Km was 1.04 l/μmol · sek in data set [10]; 1.66 l/μmol · sek in data set [11]; 0.96 l/μmol · sek in data set [14]; 0.55 l/μmol · sek in [15]; 1.14 l/μmol · sek in [16]; 1.07 l/μmol · sek in [17].
